Measurements reported in publication PMC3025077 (Peptides, 2010).

Tests used:
human Y5 receptor = target: T1, human Y5 receptor (Homo sapiens, UniProt Q15761); settings: uncompeted specific binding at 50 pM [125I]agonist as percent of the specific binding of [125I]hNPY; human Y5 in HEK293 cells; ± S.E.M.; SEM
T1 sequence (Q15761 1-445): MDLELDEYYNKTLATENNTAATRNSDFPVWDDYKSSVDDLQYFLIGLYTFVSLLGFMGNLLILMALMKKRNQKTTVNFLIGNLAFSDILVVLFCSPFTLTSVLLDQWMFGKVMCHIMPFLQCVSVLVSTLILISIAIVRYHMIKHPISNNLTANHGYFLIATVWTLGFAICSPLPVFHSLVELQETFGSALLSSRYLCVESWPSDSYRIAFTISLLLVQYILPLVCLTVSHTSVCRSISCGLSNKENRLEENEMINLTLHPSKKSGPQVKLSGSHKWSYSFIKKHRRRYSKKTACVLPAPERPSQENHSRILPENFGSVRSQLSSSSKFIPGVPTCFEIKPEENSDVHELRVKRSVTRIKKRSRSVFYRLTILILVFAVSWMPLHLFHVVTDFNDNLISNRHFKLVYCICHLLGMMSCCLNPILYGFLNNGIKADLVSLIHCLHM

hY1-CHO = assay: Non-specific binding of agonists, saturation and time course, hY1-CHO; settings: hyperbolic fit; 50 pM tracer at 100 nM unlabeled peptide over 3, 6, 10, 20 and 30 min at 25 °C

## human (Leu^31,Pro^34) peptide YY [LP-hPYY]
Human Y5 receptor
  % of NPY binding, Y5: 96.5 ±16%
hY1-CHO
  Half-period of equilibration of non-specific binding, hY1-CHO: 1.72 ± 0.11 min
